Columns and labels:
Assay in all cases: SPR, KD relative to WT C2;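 also: biacore SPR at 37 °C, anti-C2 mAbs captured via immobilised goat anti-human IgG, C2 alanine or serine surface mutants as analytes, 1:1 model fitted, double-referenced sensograms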
human C2 E267A = biological target: T1, human C2 E267A (human, UniProt P06681 21-752)
T1 sequence: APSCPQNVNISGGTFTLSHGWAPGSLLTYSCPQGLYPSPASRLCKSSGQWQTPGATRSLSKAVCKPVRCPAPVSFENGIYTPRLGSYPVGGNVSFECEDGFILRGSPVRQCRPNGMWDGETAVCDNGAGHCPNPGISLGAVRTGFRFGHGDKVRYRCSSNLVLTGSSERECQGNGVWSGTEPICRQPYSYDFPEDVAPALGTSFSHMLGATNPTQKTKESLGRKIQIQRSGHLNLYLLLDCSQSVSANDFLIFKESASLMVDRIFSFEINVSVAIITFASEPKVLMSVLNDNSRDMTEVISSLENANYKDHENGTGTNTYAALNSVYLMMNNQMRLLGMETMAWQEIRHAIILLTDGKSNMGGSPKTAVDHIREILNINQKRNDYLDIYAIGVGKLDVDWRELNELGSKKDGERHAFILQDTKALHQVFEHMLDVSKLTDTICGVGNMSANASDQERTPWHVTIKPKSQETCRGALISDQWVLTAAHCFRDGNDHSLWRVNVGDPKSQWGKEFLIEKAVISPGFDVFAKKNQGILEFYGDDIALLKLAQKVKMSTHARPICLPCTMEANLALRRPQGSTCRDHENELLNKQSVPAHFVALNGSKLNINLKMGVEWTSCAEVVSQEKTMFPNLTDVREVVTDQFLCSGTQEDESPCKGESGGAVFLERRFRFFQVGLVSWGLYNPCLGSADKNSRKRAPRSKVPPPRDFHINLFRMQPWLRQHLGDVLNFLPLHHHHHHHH

human C2 E556A = biological target: T2, human C2 E556A (human, UniProt P06681 21-752)
T2 sequence: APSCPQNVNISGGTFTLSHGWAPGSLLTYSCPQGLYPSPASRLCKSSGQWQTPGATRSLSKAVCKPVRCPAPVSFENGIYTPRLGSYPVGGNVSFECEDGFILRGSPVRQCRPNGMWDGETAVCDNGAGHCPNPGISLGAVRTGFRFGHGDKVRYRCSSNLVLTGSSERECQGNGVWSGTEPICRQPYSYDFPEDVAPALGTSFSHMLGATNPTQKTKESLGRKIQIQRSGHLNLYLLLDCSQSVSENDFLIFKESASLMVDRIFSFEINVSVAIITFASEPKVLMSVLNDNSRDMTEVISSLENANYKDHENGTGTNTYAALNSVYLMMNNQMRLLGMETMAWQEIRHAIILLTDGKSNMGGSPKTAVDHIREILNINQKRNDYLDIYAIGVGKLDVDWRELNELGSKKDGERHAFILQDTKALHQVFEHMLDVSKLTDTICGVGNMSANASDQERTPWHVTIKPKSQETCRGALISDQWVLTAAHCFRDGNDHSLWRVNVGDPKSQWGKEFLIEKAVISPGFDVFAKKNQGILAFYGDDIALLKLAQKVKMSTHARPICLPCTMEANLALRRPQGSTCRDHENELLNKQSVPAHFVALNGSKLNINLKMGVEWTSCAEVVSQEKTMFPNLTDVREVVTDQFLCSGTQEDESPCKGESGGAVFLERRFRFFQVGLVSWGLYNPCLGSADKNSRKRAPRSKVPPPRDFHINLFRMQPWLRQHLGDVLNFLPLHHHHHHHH

human C2 D710A = biological target: T3, human C2 D710A (human, UniProt P06681 21-752)
T3 sequence: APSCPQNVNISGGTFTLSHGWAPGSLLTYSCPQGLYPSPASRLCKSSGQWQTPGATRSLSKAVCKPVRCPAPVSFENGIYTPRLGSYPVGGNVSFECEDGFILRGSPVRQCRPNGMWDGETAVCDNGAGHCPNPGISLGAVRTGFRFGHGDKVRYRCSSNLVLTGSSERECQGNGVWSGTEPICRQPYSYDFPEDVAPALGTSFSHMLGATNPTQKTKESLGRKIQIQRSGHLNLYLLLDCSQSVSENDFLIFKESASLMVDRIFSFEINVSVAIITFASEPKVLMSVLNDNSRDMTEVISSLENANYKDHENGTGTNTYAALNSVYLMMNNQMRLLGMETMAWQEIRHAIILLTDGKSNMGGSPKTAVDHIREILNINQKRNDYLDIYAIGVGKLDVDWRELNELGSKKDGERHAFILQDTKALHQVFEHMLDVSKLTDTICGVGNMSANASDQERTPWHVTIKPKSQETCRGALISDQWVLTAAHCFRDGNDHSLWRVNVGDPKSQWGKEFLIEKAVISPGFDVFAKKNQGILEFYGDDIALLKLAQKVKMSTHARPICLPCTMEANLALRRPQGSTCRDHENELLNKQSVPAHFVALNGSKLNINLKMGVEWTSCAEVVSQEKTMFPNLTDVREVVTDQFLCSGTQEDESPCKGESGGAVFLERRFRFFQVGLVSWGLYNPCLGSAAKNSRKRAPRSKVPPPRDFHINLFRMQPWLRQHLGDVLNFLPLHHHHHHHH

human C2 R688A = biological target: T4, human C2 R688A (human, UniProt P06681 21-752)
T4 sequence: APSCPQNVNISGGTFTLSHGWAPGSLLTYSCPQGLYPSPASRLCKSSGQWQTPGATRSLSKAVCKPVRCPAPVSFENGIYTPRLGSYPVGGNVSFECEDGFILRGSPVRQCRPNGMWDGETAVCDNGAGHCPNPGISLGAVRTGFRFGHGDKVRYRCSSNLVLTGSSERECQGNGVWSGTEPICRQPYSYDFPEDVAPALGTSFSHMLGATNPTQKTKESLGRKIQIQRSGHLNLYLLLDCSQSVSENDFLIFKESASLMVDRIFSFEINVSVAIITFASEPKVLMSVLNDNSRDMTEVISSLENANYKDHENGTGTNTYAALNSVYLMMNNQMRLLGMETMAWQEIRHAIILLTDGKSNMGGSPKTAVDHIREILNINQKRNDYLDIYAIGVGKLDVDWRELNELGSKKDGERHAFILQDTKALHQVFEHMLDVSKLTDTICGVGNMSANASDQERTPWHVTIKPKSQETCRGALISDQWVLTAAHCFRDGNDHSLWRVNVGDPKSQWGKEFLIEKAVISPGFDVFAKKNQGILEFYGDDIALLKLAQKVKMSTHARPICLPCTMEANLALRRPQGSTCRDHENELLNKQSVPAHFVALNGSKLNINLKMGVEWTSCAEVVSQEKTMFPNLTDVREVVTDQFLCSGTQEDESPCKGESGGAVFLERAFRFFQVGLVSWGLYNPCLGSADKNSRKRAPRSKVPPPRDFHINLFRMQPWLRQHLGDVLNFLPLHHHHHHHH

B1: RF16-226 (antibody, human IgG4 S228P, lambda)
heavy: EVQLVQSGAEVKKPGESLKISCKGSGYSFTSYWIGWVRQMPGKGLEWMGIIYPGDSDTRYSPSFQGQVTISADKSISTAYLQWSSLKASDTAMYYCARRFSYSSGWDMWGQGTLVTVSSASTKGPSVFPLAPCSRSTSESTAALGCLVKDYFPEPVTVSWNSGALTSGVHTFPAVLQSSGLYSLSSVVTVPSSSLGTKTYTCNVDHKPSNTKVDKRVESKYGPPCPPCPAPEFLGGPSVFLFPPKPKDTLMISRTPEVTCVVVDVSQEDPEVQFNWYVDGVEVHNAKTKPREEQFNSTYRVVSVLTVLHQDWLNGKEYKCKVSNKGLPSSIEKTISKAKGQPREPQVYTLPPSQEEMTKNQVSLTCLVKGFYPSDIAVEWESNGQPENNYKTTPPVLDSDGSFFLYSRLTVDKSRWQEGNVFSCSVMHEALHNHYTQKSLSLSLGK
light: SYELTQPPSVSVSPGQTARITCSGDALTSKYVAWYQQKSGLAPLLVIYEDTRRPSGIPAKFSGSSSGSVATLTISGAHGDDEADYYCYSTDASGHQRVFGGGTKLTVLSQPKAAPSVTLFPPSSEELQANKATLVCLISDFYPGAVTVAWKADGSPVKAGVETTKPSKQSNNKYAASSYLSLTPEQWKSHRSYSCQVTHEGSTVEKTVAPTECS
notes: pH-dependent anti-C2 antibody from a phage display library; also called WT
Fold diff (human C2 E267A): 1 fold | Fold diff (human C2 E556A): 1 fold | Fold diff (human C2 D710A): 10 fold | Fold diff (human C2 R688A): 3 fold
